In PMC2649111:

Legend:
Experiment in all cases: SEC
[1] = molecular target: VARC 1–291 of PfEMP1 (PF08_0141) (P. falciparum 3D7)
[2] = molecular target: VARC 87–392 of PfEMP1 (PF08_0141) (P. falciparum 3D7)
[3] = molecular target: VARC 87–291 of PfEMP1 (PF08_0141) (P. falciparum 3D7)
[4] = molecular target: Full-length cytoplasmic C-terminal domain (VARC 1–392) of PfEMP1 (PF08_0141), unphosphorylated (P. falciparum 3D7)

VARC 1–291 of PfEMP1 (PF08_0141) (domain or fragment)
stoichiometry N [1]: 2

VARC 87–392 of PfEMP1 (PF08_0141) (domain or fragment)
stoichiometry N [2]: 2

VARC 87–291 of PfEMP1 (PF08_0141) (domain or fragment)
stoichiometry N [3]: 2

Full-length cytoplasmic C-terminal domain (VARC 1–392) of PfEMP1 (PF08_0141), unphosphorylated (domain or fragment)
stoichiometry N [4]: 2
